Results: the supplement of paper PMC9732359
± gives the uncertainty stated by the source.

Test: protein stability index of a GFP-peptide fusion (yeast GPS) (PSI 1-4); higher = more stable; sorted into four equal gates, so the index is relative within each strain
Details: doa10∆
In short: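 Plasmids in a pooled yeast library fused tiled 17-residue yeast protein peptides downstream of GFP and also expressed Cherry. Mid-log cultures grown without leucine were sorted into four equal gates by GFP/Cherry fluorescence ratio. Each gate's plasmids were PCR-amplified and Illumina-sequenced, and reads were matched to strains by barcodes. The protein stability index is derived by multiplying each gate's read frequency by its gate number and summing the results.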

Row | Sequence | protein stability index
1 | EDEGEERESSGAKDAEK [RPC17] | 2.93 ± 0.18

Same assay, conditions: pdr5∆

Row | Sequence | protein stability index
2 | DKKLNLNLPLQFSLPNG [SNF12] | 3.02 ± 0.079
3 | DKKNSSDPNNQSLNEMV [YJL039C/NUP192] | 3.24 ± 0.11
4 | DKKVLVKVQPEGKYIVD [RPT6] | 3.28 ± 0.088
5 | DKLDDDGLIAPGVRVSG [RPB2] | 2.23 ± 0.1
6 | DKLELYVLRNVLRIPEE [MTW1] | 2.45 ± 0.084
7 | DKLPQFVDENTFQRVCQ [RPN1] | 3.28 ± 0.12
8 | DKLWTLIPEDKRDQYLK [RPL28] | 2.88 ± 0.22
9 | DKLYIHFVQEEPLAFYL [RGR1] | 2.35 ± 0.045
10 | DKSIDTSSLQLYKFQNF [YML103C/NUP188] | 3.05 ± 0.086
11 | DLAFGGEANKHHWEDLQ [RPN5] | 3.31 ± 0.16
12 | DLALPPPPPPPPGYEIE [PRP8] | 2.98 ± 0.11
13 | DLDLNEQVRKMYQEWED [NSL1] | 3.39 ± 0.11
14 | DLDTVLKKDIESLRGIL [SRP72] | 1.38 ± 0.096
15 | DLEKTERIVVSYEYYNI [SMC2] | 2.6 ± 0.073
16 | DLESMGLTQLYKKSTEN [MED7] | 3.13 ± 0.067
17 | DLIAEQVVTDYNILGNL [SSN2] | 3.11 ± 0.077
18 | DLQKLLKGIQEFGADWY [SWI3] | 3.07 ± 0.056
19 | DLQNLNLNTDKLKNNAS [YJL039C/NUP192] | 2.65 ± 0.061
20 | DLRLGSQSLGVSNKFEK [PUP3] | 3.52 ± 0.16
21 | DLSLNITLHPSFFGPRM [RPB7] | 1.83 ± 0.1
22 | DLTLDDISLKADLERFF [YJL039C/NUP192] | 3.35 ± 0.076
23 | DLTNNPQDDDSQSKMMS [MTR3] | 3.39 ± 0.073
24 | DMANEIILSIDEHHESF [RRP6] | 2.98 ± 0.093
25 | DMDAQGRSDSNTEEKAE [YGL100W/SEH1] | 1.67 ± 0.051
26 | DMGMQQELCYPDENHDN [BRN1] | 3.28 ± 0.06
27 | DMNSNLQVLKRERDGIK [SMC1] | 2.92 ± 0.065

Row | Sequence | protein stability index
28 | DNCCDFKVRTNLNDKFG [MED1] | 3.22 ± 0.2
29 | DNNITEMLEENFPEASK [YCG1] | 2.22 ± 0.11
30 | DNNNTTNNDSNNKNNSI [MED2] | 2.86 ± 0.045
31 | DNRTKSTTIKNIDILNR [SMC4] | 2.07 ± 0.062
32 | DNVSGLTRNAPLDSKDE [SNF2] | 3.25 ± 0.051
33 | DNWNAPLIMATCGSKGS [RPO31] | 2.4 ± 0.11
34 | DNWRREFLKWTPNVNVL [ISW2] | 2.42 ± 0.12
35 | DPDNTSFSDENSDDFFM [ESC2] | 2.39 ± 0.11
36 | DPDTKKVKESPANDQAS [YIL149C/MLP2] | 3.21 ± 0.078
37 | DPHSASLINSHLKILAS [RPC82] | 1.38 ± 0.12
38 | DPKLEKCLNYRNVNWIE [ITC1] | 2.88 ± 0.09
39 | DPLYDITKVPALEFLNT [REC8] | 2.72 ± 0.093
40 | DPPFRIEEQGWGGFPLD [TAF14] | 3.33 ± 0.052
41 | DPRIAPLRGALATYGLT [FAS2] | 2.51 ± 0.16
42 | DPSISNNIRQAICRYAN [RRP4] | 2.06 ± 0.049
43 | DPVEGNLEFDSTNHPDY [SRP14] | 2.79 ± 0.068
44 | DPYELKGEVVLVNIRTQ [ITC1] | 2.66 ± 0.14
45 | DQCVGQVGLNFELSFTG [YMR129W/POM152] | 3.01 ± 0.077
46 | DQDELVQPPLDKFPYKK [SWP82] | 3.26 ± 0.093
47 | DQKFGVPVRSFKGHSHI [ASC1] | 3.19 ± 0.064
48 | DQNNATMGEETAKKDMS [SNF12] | 3.34 ± 0.11
49 | DRELSVRNACKRLIAHD [YCG1] | 2.77 ± 0.27
50 | DRIYMLFHFEEDEGEEL [PRP8] | 1.49 ± 0.064
51 | DRSLADDYDYVMYGTAY [RPB8] | 2.98 ± 0.064
52 | DRVEDICERIFEQGQAL [RRI2] | 3.02 ± 0.17
53 | DRVFNVPTIGVVNSNFA [YJR042W/NUP85] | 2.7 ± 0.085

Row | Sequence | protein stability index
54 | DSELNRALFETKLNLHC [RRI1] | 2.79 ± 0.053
55 | DSESESGDKEATAPLIQ [RPN8] | 3.44 ± 0.12
56 | DSIPLRITNSFYSTNSQ [RPN9] | 2.65 ± 0.13
57 | DSKDGTTLNIKVEKRVL [SMB1] | 3.66 ± 0.22
58 | DSKMIQDLSRNTLGKGQ [SNU114] | 3.34 ± 0.11
59 | DSLENNEGVPSPMLSIS [FAS1] | 2.56 ± 0.062
60 | DSLIFKDSSLNYSSESY [YJL039C/NUP192] | 3.25 ± 0.1
61 | DSLNEWIKFDQELYNEL [RPN7] | 3.17 ± 0.19
62 | DSLNQLEIRNKICSSEM [RGR1] | 3.11 ± 0.11
63 | DSMLFVFGFRANKMRQD [SMC4] | 2.24 ± 0.08
64 | DSVLLNRGNKKRHRSSY [YML031W/NDC1] | 3.25 ± 0.1
65 | DSYIALYEKDIVPSMTH [RET1] | 2.51 ± 0.07
66 | DTKLKAHELQSEDVSRD [YIL149C/MLP2] | 2.95 ± 0.055
67 | DTLCGIRKLTLRDTFIE [RPO21] | 1.58 ± 0.058
68 | DTLKENATEVQKESDAK [ITC1] | 2.94 ± 0.12
69 | DTSRPDLEWQELTSFSS [DSN1] | 3.05 ± 0.053
70 | DTSTQAYEEEEENEDND [NUT1] | 3.5 ± 0.17
71 | DTVAELQAQLDYLNAEL [FAS2] | 3.08 ± 0.081
72 | DVAAKCKEVGITAVHVK [RPS14A] | 2.81 ± 0.065
73 | DVAFLKTAYSIYLSQNE [RPN1] | 2.51 ± 0.056
74 | DVEIGRMPIMLRSNKCI [RET1] | 1.27 ± 0.11
75 | DVHNGYILRYLHANGAS [COB] | 2.37 ± 0.093
76 | DVKCWSKFIEKFQDIVS [MED1] | 2.62 ± 0.12
77 | DVKSSDSLKLNSKPVEL [YJL041W/NSP1] | 3.09 ± 0.12
78 | DVNEKIRFRIEREVFVD [RPC25] | 1.29 ± 0.066
79 | DVNSASKSESDSQIVTP [RRP4] | 3.28 ± 0.073

Row | Sequence | protein stability index
80 | DVSIEELLREWLETYSE [IRR1] | 3.34 ± 0.075
81 | DVTALLEQGFKVVSAKE [YCS4] | 1.68 ± 0.077
82 | DVVERLHKNFESENFKI [RGR1] | 3.4 ± 0.3
83 | DVVMKATEPQMVLFNIY [PRP8] | 1.76 ± 0.049
84 | DVYTLPSYVHFKVQIIE [YML103C/NUP188] | 1.71 ± 0.05
85 | DWIRFVSIRQNQYKLVF [RPL22B] | 1.48 ± 0.041
86 | DYFFYFLVLYDVKTAEE [NUT1] | 1.46 ± 0.044
87 | DYISGISVGLYDTTPLL [SKI6] | 2.28 ± 0.1
88 | DYPDDSGWTPFHIACSV [NAS6] | 2.28 ± 0.099
89 | DYRVLVDKSRKVAHTSY [PRE8] | 2.48 ± 0.13
90 | EAAAKEKDELDNIEVSK [QCR7] | 3.41 ± 0.079
91 | EAEFSLRELSCCINAAF [RRP46] | 2.83 ± 0.064
92 | EAFGNIKIDAKPALFER [MCD1] | 2.89 ± 0.15
93 | EAGEVKDDGAFVKFLSK [RPL10] | 3.22 ± 0.078
94 | EAGVTDVKVSISHDDLQ [FAS2] | 2.72 ± 0.038
95 | EALFQSRPDILSKIKFP [YCG1] | 2.62 ± 0.057
96 | EALSEKPTREPTPSVKT [RPC53] | 3.07 ± 0.085
97 | EANGATSFDRTKKTITP [RPL3] | 2.91 ± 0.15
98 | EAPFLTSGTSSEQFNVW [GAL11] | 3.27 ± 0.072
99 | EAQIKDWVENELEALKL [FAS2] | 1.25 ± 0.091
100 | EATQDDDFDMLFGENDT [NUT1] | 3.13 ± 0.06
101 | ECATCHGNLASCHGHFG [RPO31] | 3.17 ± 0.12
102 | ECKGCDNKIDIYQIHIP [RPB2] | 2.87 ± 0.048
103 | ECPGHFGHIDLAKPVFH [RPO21] | 2.88 ± 0.06
104 | EDDDNEQHEEKAAEGEE [QCR6] | 2.95 ± 0.12
105 | EDDLVGVVQMVTDNKTP [TAF14] | 2.52 ± 0.19
